According to patent US20250340633A1 (DIATHEVA S R L, published 2025):

T1: CEACAM1 antigen (Diatheva) (UniProt P13688 35-428, limits assumed)
T1 construct: Purchased antigen; also called CEA Cell Adhesion Molecule 1
T1 sequence (looked up): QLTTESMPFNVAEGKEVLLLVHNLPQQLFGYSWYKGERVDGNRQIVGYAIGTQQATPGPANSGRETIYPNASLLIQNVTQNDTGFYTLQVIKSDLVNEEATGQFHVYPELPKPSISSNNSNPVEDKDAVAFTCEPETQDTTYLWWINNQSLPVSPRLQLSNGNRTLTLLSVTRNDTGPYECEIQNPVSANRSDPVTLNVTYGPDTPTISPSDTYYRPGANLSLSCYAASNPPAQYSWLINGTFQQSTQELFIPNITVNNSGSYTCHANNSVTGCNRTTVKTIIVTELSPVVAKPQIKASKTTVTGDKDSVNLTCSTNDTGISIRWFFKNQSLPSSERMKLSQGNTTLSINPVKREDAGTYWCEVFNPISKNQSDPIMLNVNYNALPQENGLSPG


Experiments:
[1] = molecular target: T1, CEACAM1 antigen (Diatheva); assay: ELISA titration on coated CEACAM1; detection with anti-His6 and anti-mouse HRP
Experimental: 96 wells microtiter plates (MAXISORB NUNC) were coated with 100 μl/well of CEACAM1 antigen (Diatheva) solution 1 μg/ml diluted in PBS pH 7.3 and incubated overnight (ON) at 37° C. Plates were washed five times with PBS added with 0.05% (v/v) Tween 20 pH 7.3 (PBST) (the same washing procedure was repeated after each incubation step during the assays) and then blocked with 1% (w/v) BSA dissolved in PBS (150 μl/well) and maintained at 37° C. for 60 min. After washing, serial dilutions of IgG1 or IgG4 in PBS containing 2% (w/v) not-fat dry milk (PBSM) were added to the plate (100 μl/well) and incubated for 90 min at 37° C. […] Finally, the detection was performed after addition of 2,2′-azino-bis(3-ethylbenzthiazoline-6-sulphonic acid) (ABTS; Roche, 10102946001) as substrate. The absorbance values were read by a microplate reader (Bio-Rad Laboratories) at 405 nm after 45 min. In FIG. 4 are reported the results obtained with IgG1 (black line) and IgG4 (grey line) antibodies purified after transient expression in HEK293T cells. The absorbance of the mock sample is shown by the dotted line. The ELISA assay highlighted a higher affinity for the CEACAM1 antigen of the antibody belonging to the IgG1 subclass compared to the same antibody with the IgG4 (S228P) constant region. […]

[2] = molecular target: T1, CEACAM1 antigen (Diatheva); assay: ELISA titration on coated CEACAM1; EC50 of the scFv against that of IgG1 clone 12
[3] = molecular target: T1, CEACAM1 antigen (Diatheva); assay: ELISA titration on coated CEACAM1; EC50 of the scFv against that of IgG4 clone 2
[4] = molecular target: T1, CEACAM1 antigen (Diatheva); assay: ELISA titration on coated CEACAM1; antibody purified after transient expression in HEK293T
Experimental: Purified antibodies were analysed for their reactivity against CEACAM1 antigen in ELISA titration assay as follow:
(§1) 96 wells microtiter plates (MAXISORB NUNC) were coated with 100 μl/well of CEACAM1 antigen (Diatheva) solution 1 μg/ml diluted in PBS pH 7.3 and incubated overnight (ON) at 37° C. Plates were washed five times with PBS added with 0.05% (v/v) Tween 20 pH 7.3 (PBST) (the same washing procedure was repeated after each incubation step during the assays) and then blocked with 1% (w/v) BSA dissolved in PBS (150 μl/well) and maintained at 37° C. for 60 min. After washing, serial dilutions of IgG1 or IgG4 in PBS containing 2% (w/v) not-fat dry milk (PBSM) were added to the plate (100 μl/well) and incubated for 90 min at 37° C. After washes, plates were incubated at 37° C. for 60 min with an anti-human Fc antibody HRP conjugated (Meridian) diluted 1:500 v/v in PBSM. Finally, the detection was performed after addition of 2,2′-azino-bis(3-ethylbenzthiazoline-6-sulphonic acid) (ABTS; Roche, 10102946001) as substrate. The absorbance values were read by a microplate reader (Bio-Rad Laboratories) at 405 nm after 45 min. In FIG. 4 are reported the results obtained with IgG1 (black line) and IgG4 (grey line) antibodies purified after transient expression in HEK293T cells. The absorbance of the mock sample is shown by the dotted line. […]

[5] = molecular target: T1, CEACAM1 antigen (Diatheva); assay: ELISA titration on coated CEACAM1; antibody from stable clone 2
Experimental: 96 wells microtiter plates (MAXISORB NUNC) were coated with 100 μl/well of CEACAM1 antigen (Diatheva) solution 1 μg/ml diluted in PBS pH 7.3 and incubated overnight (ON) at 37° C. Plates were washed five times with PBS added with 0.05% (v/v) Tween 20 pH 7.3 (PBST) (the same washing procedure was repeated after each incubation step during the assays) and then blocked with 1% (w/v) BSA dissolved in PBS (150 μl/well) and maintained at 37° C. for 60 min. After washing, serial dilutions of IgG1 or IgG4 in PBS containing 2% (w/v) not-fat dry milk (PBSM) were added to the plate (100 μl/well) and incubated for 90 min at 37° C. After washes, plates were incubated at 37° C. for 60 min with an anti-human Fc antibody HRP conjugated (Meridian) diluted 1:500 v/v in PBSM. Finally, the detection was performed after addition of 2,2′-azino-bis(3-ethylbenzthiazoline-6-sulphonic acid) (ABTS; Roche, 10102946001) as substrate. The absorbance values were read by a microplate reader (Bio-Rad Laboratories) at 405 nm after 45 min. In FIG. […] The absorbance of the mock sample is shown by the dotted line. The ELISA assay highlighted a higher affinity for the CEACAM1 antigen of the antibody belonging to the IgG1 subclass compared to the same antibody with the IgG4 (S228P) constant region. […]

[6] = molecular target: T1, CEACAM1 antigen (Diatheva); assay: ELISA titration on coated CEACAM1; antibody from stable clone 12
Experimental: as §1

Binder | EC50 [1] | fold of EC50 against IgG1 [2] | fold of EC50 against IgG4 [3] | EC50 [4] | EC50 [5] | EC50 [6]
scFvDIATHIS-1 (scFv, V domains shown, Single-chain fragment described in WO2011160859A1; Detection with an anti-His6 antibody implies a His6 tag) VH: not shown VL: SELTQDPAVSVALGQTVRITCQGDSLRSSYASWYRQRPGQAPVPVIYGKNNRPSGIPDRFSGSSSGNTASLTITGAQAEDEADYYCNSSYAWLPYVVFGGGTKLTVLG | 4.16 µg/mL | ~4 fold | ~2 fold | – | – | –
IgG4 (S228P) anti-CEACAM1 mAb (antibody, not shown: large carriers, also called IgG4 clone 2) heavy: not shown light: SELTQDPAVSVALGQTVRITCQGDSLRSSYASWYRQRPGQAPVPVIYGKNNRPSGIPDRFSGSSSGNTASLTITGAQAEDEADYYCNSSYAWLPYVVFGGGTKLTVLG | – | – | – | 26.7 µg/mL | 2.55 µg/mL | –
DIA-12.3 IgG1 (antibody, The preparation is named under assay in each row; also called IgG1 anti-CEACAM1 mAb; IgG1 clone 12) heavy: not shown light: SELTQDPAVSVALGQTVRITCQGDSLRSSYASWYRQRPGQAPVPVIYGKNNRPSGIPDRFSGSSSGNTASLTITGAQAEDEADYYCNSSYAWLPYVVFGGGTKLTVLGGQPKANPTVTLFPPSSEELQANKATLVCLISDFYPGAVTVAWKADGSPVKAGVETTKPSKQSNNKYAASSYLSLTPEQWKSHRSYSCQVTHEGSTVEKTVAPTECS | – | – | – | 12.8 µg/mL | – | 1.27 µg/mL
